Laboratory results reported in patent publication US20190263882A1 (Scripps Research, published 2019).
Residue numbers refer to the chain shown, from its start.

T1: relaxin receptor (LGR7)
T1 sequence (Q9HBX9 whole entry, species assumed, looked up): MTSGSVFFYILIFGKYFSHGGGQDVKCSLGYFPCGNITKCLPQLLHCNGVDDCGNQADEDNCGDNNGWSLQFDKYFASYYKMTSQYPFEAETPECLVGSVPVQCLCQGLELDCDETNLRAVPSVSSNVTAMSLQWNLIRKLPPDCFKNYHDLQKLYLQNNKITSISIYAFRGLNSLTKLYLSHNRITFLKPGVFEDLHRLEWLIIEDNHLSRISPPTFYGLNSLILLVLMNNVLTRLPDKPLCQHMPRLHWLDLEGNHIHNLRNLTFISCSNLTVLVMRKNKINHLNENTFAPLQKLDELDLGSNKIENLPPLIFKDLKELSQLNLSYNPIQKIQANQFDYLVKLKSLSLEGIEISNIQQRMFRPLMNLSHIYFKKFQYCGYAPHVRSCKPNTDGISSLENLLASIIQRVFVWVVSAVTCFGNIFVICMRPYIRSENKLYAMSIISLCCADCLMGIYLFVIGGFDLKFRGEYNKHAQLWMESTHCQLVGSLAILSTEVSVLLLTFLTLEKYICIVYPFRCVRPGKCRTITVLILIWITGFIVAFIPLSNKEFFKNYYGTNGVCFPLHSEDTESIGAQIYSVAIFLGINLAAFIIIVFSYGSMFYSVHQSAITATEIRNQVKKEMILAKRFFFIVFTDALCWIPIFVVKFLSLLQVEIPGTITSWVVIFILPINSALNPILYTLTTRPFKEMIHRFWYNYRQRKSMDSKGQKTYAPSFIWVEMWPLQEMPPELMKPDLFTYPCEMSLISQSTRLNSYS

B1: SC3: Palivizumab (null, 16GS)-relaxin2(9GS) and Palivizumab L (antibody, human IgG1, kappa)
heavy: DSWMEEVIKLCGRELVRAQIAICGMSTWSGGGGSGGGGQLYSALANKCCHVGCTKRSLARFCGGGGSGGGGSGGGGSGQVTLRESGPALVKPTQTLTLTCTFSGFSLSTSGMSVGWIRQPPGKALEWLADIWWDDKKDYNPSLKSRLTISKDTSKNQVVLKVTNMDPADTATYYCARSMITNWYFDVWGAGTTVTVSSASTKGPSVFPLAPSSKSTSGGTAALGCLVKDYFPEPVTVSWNSGALTSGVHTFPAVLQSSGLYSLSSVVTVPSSSLGTQTYICNVNHKPSNTKVDKKVEPKSCDKTHTCPPCPAPPVAGPSVFLFPPKPKDTLMISRTPEVTCVVVDVSHEDPEVKFNWYVDGVEVHNAKTKPREEQYNSTYRVVSVLTVLHQDWLNGKEYKCKVSNKGLPSSIEKTISKAKGQPREPQVYTLPPSRDELTKNQVSLTCLVKGFYPSDIAVEWESNGQPENNYKTTPPVLDSDGSFFLYSKLTVDKSRWQQGNVFSCSVMHEALHNHYTQKSLSLSPGK
light: DIQMTQSPSTLSASVGDRVTITCKCQLSVGYMHWYQQKPGKAPKLLIYDTSKLASGVPSRFSGSGSGTEFTLTISSLQPDDFATYYCFQGSGYPFTFGGGTKLEIKRTVAAPSVFIFPPSDEQLKSGTASVVCLLNNFYPREAKVQWKVDNALQSGNSQESVTEQDSKDSTYSLSSTLTLSKADYEKHKVYACEVTHQGLSSPVTKSFNRGEC
B2: SCX2: palivizumab(NH2, 16GS)-relaxin2(9GS) and palivizumab L (antibody, human IgG1, kappa)
heavy: B1 heavy with W183G
light: B1 light
B3: SCX3: palivizumab(NH3, 16GS)-relaxin2(9GS) and palivizumab L (antibody, human IgG1, kappa)
heavy: B1 heavy with N182F, W183G, Y184G
light: B1 light
B4: SCX1: palivizumab(NH1, 16GS)-relaxin2(9GS) and palivizumab L (antibody, human IgG1, kappa)
heavy: B1 heavy with W183A
light: B1 light

Experiments:
relaxin receptor (LGR7) [1] = target: T1, relaxin receptor (LGR7); test: cell-based or functional assay
LGR8 = test: cell-based or functional assay
LGR8, sequence (Q8WXD0 whole entry): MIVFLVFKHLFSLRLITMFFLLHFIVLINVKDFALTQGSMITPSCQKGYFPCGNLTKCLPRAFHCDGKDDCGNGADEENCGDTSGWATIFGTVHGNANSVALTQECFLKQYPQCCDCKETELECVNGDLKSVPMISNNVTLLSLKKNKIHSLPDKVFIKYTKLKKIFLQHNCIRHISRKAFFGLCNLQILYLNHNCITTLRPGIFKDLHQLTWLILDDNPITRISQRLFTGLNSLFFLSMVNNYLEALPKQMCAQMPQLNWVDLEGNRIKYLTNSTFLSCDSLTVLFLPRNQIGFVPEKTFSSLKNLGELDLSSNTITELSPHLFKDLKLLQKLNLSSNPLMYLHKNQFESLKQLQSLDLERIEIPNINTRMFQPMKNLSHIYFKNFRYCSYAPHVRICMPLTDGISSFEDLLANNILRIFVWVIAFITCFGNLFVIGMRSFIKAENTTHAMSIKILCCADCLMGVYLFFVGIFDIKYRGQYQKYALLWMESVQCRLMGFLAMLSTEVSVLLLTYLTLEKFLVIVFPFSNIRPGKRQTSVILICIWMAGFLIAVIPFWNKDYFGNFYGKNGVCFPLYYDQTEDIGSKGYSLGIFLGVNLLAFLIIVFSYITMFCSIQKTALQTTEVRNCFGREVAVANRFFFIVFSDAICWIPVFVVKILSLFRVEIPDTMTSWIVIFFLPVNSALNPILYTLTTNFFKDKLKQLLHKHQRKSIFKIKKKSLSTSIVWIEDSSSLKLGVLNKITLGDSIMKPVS

RSV F protein [2] = target: T2, RSV F protein (UniProt P03420 26-524); test: plate binding assay, RSV F protein coated, anti-human IgG (Fc specific) detection, fluorescence read at 25 min
T2 sequence (P03420 26-524): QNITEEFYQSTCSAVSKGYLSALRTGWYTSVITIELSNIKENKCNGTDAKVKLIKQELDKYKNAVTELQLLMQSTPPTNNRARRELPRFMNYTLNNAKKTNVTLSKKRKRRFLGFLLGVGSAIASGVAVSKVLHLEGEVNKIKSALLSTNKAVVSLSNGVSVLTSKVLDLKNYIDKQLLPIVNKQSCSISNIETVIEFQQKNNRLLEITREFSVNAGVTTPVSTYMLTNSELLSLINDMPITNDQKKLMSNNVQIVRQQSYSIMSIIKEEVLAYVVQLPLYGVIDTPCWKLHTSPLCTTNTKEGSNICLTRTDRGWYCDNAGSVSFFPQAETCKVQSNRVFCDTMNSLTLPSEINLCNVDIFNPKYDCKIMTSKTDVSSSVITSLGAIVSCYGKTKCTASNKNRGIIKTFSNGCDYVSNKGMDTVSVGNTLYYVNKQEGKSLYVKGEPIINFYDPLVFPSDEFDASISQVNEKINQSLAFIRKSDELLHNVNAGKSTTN

RSV F protein [3] = target: T2, RSV F protein; test: plate binding assay, RSV F protein coated, anti-human IgG (Fc specific) detection, fluorescence read at 50 min
relaxin receptor (LGR7) [4] = target: T1, relaxin receptor (LGR7); test: cell-based or functional assay; remark: listed apart in the source

| Binder | LGR7 (relaxin receptor (LGR7) [1]) [nM] | LGR8 (LGR8) [nM] | Kd (RSV F protein [2]) [nM] | Kd (RSV F protein [3]) [nM] | EC50, CRE-luciferase reporter assay (relaxin receptor (LGR7) [4]) [nM] |
| --- | --- | --- | --- | --- | --- |
| B1 | 0.205 | 177 | 0.425 | 0.249 | – |
| B2 | 0.115 | 327 | 14.4 | 9.03 | 0.0612 |
| B3 | 0.115 | 16300 | 163 | 107 | 0.129 |
| B4 | 0.129 | 939 | 112 | 83.1 | 0.0691 |
